# Measured values from the supplement of paper PMC9112550, “Optimization of the antimicrobial peptide Bac7 by deep mutational scanning” (BMC Biology, 2022).
# Tested on: Escherichia coli TOP10
# Experiment: shrunken log2 fold change of peptide-encoding DNA abundance (4.5 h post-induction vs induction); higher = less antimicrobial activity (less host growth inhibition)
# Conditions: time post-induction: 4.5 h; library: site-saturation at positions 5, 18, 19, 20
# 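Also: peptides expressed intracellularly from a pBAD plasmid library in pooled LB shake-flask culture, induced with 0.3% L-arabinose, DNA abundance read by NGS, three biological replicates, DESeq2 with apeglm shrinkage.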
row,Sequence,shrunken log2 fold change
1,RRIRQRPPRLPRPRPRPWISPRP,-0.0848
2,RRIRGRPPRLPRPRPRPAQMPRP,0.305
3,RRIRQRPPRLPRPRPRPNVAPRP,0.236
4,RRIRARPPRLPRPRPRPAGVPRP,0.45
5,RRIRCRPPRLPRPRPRPVRMPRP,-0.053
6,RRIRDRPPRLPRPRPRPADHPRP,-0.0509
7,RRIRFRPPRLPRPRPRPKMVPRP,-0.0413
8,RRIRLRPPRLPRPRPRPRCDPRP,-0.0342
9,RRIRIRPPRLPRPRPRPTCLPRP,-0.0168
10,RRIRCRPPRLPRPRPRPGEFPRP,-0.179
11,RRIRMRPPRLPRPRPRPDQKPRP,-0.0396
12,RRIRIRPPRLPRPRPRPCIVPRP,-0.562
13,RRIRCRPPRLPRPRPRPFPYPRP,-0.645
14,RRIRQRPPRLPRPRPRPRHVPRP,-0.14
15,RRIRPRPPRLPRPRPRPMQMPRP,0.00304
16,RRIRGRPPRLPRPRPRPHSAPRP,0.0365
17,RRIRMRPPRLPRPRPRPRMCPRP,0.0537
18,RRIRARPPRLPRPRPRPPFHPRP,0.386
19,RRIRRRPPRLPRPRPRPCACPRP,-0.0784
20,RRIRPRPPRLPRPRPRPVKHPRP,-0.0566
21,RRIRFRPPRLPRPRPRPQEPPRP,0.436
22,RRIRIRPPRLPRPRPRPIPNPRP,-0.0731
23,RRIRTRPPRLPRPRPRPSQFPRP,-0.302
24,RRIRERPPRLPRPRPRPECEPRP,0.318
25,RRIRKRPPRLPRPRPRPQNFPRP,-0.214

row,Sequence,shrunken log2 fold change
1,RRIRLRPPRLPRPRPRPLWQPRP,-0.0523
2,RRIRSRPPRLPRPRPRPKNMPRP,-0.324
3,RRIRDRPPRLPRPRPRPFFMPRP,0.033
4,RRIRWRPPRLPRPRPRPKNLPRP,0.0793
5,RRIRWRPPRLPRPRPRPFHPPRP,-0.138
6,RRIRVRPPRLPRPRPRPFAPPRP,0.0601
7,RRIRIRPPRLPRPRPRPPSKPRP,0.147
8,RRIRSRPPRLPRPRPRPKPMPRP,0.2
9,RRIRWRPPRLPRPRPRPLLWPRP,0.571
10,RRIRNRPPRLPRPRPRPIHSPRP,-0.189
11,RRIRPRPPRLPRPRPRPMGQPRP,0.0687
12,RRIRIRPPRLPRPRPRPIMWPRP,-0.0162
13,RRIRKRPPRLPRPRPRPVWHPRP,0.0861
14,RRIRRRPPRLPRPRPRPFYQPRP,-0.46
15,RRIRRRPPRLPRPRPRPYTHPRP,-0.505
16,RRIRFRPPRLPRPRPRPCFCPRP,-0.453
17,RRIRTRPPRLPRPRPRPSAEPRP,0.363
18,RRIRQRPPRLPRPRPRPYTWPRP,-0.51
19,RRIRKRPPRLPRPRPRPNTEPRP,0.0416
20,RRIRKRPPRLPRPRPRPSSIPRP,-0.0636
21,RRIRGRPPRLPRPRPRPAACPRP,1.15
22,RRIRVRPPRLPRPRPRPPFYPRP,-0.0377
23,RRIRERPPRLPRPRPRPMQVPRP,-0.32
24,RRIRLRPPRLPRPRPRPQTGPRP,-0.247
25,RRIRFRPPRLPRPRPRPWDLPRP,2.08

row,Sequence,shrunken log2 fold change
1,RRIRSRPPRLPRPRPRPTGNPRP,-0.275
2,RRIRGRPPRLPRPRPRPASWPRP,2.63
3,RRIRMRPPRLPRPRPRPFKFPRP,-0.012
4,RRIRVRPPRLPRPRPRPKYKPRP,-0.574
5,RRIRCRPPRLPRPRPRPTPQPRP,0.794
6,RRIRSRPPRLPRPRPRPFNLPRP,-0.218
7,RRIRARPPRLPRPRPRPMTTPRP,0.505
8,RRIRERPPRLPRPRPRPMVRPRP,-0.019
9,RRIRRRPPRLPRPRPRPQITPRP,0.0752
10,RRIRWRPPRLPRPRPRPGPMPRP,0.327
11,RRIRPRPPRLPRPRPRPVFHPRP,-0.178
12,RRIRMRPPRLPRPRPRPQHDPRP,-0.202
13,RRIRVRPPRLPRPRPRPAAYPRP,0.00526
14,RRIRCRPPRLPRPRPRPTMIPRP,-0.922
15,RRIRSRPPRLPRPRPRPWAGPRP,-0.255
16,RRIRTRPPRLPRPRPRPYDHPRP,-0.097
17,RRIRDRPPRLPRPRPRPHWAPRP,-0.00226
18,RRIRPRPPRLPRPRPRPMHFPRP,0.015
19,RRIRWRPPRLPRPRPRPGYVPRP,-0.215
20,RRIRLRPPRLPRPRPRPSSYPRP,-0.542
21,RRIRGRPPRLPRPRPRPSEYPRP,-0.0981
22,RRIRWRPPRLPRPRPRPATKPRP,0.273
23,RRIRMRPPRLPRPRPRPNFPPRP,-0.186
24,RRIRQRPPRLPRPRPRPHSYPRP,0.0443
25,RRIRKRPPRLPRPRPRPQKYPRP,-0.184
